Assays:
Design in all cases: reference not given here
[1] = target: T1, biotinylated Fc-fused monkey CD137 (monkey, biotin on the AviTag); experiment: ELISA, 1 mM ADP, 10 ug/mL
T1 construct: also called cyCD137-Fc-BAP
Experimental: (§1) The obtained antibodies were evaluated for binding to monkey CD137 by ELISA. The cyCD137-Fc-BAP prepared in Reference Example 1 was immobilized on Streptawell microtiter plates. After the unbound antigen was removed from the plates by washing each well of the plates with the wash buffer, the wells were blocked with 150 μL of a blocking buffer (TBS with 2% BSA) for 1 hour or more. The blocking buffer was removed from each well, and 100 μL of the purified antibodies diluted in TBS with a final concentration of 1 mM ADP, or TBS with a final concentration 1 mM ADP was added to each well. The plate to which the antibody was added was shaken at 600 rpm for 1 hour. The AP-conjugated anti-human lambda antibodies (BETHYL) diluted in TBS with a final concentration of 1 mM ADP were added to each well after washing with a wash buffer (TBS with 0.1% Tween20) containing a final concentration of 1 mM ADP. After incubation for one hour and washing with a wash buffer containing a final concentration of 1 mM […], BluePhos phosphate substrate (KPL) was added. Color development was measured by absorbance at 600 nm. Samples with a concentration-dependent increase in the absorbance ratio can be said to be bound to monkey CD137.

[2] = target: T1, biotinylated Fc-fused monkey CD137; experiment: ELISA, 1 mM ADP, 2.5 ug/mL
Experimental: as §1

[3] = target: T1, biotinylated Fc-fused monkey CD137; experiment: ELISA, 1 mM ADP, 0.010 ug/mL
Experimental: as §1

[4] = target: T1, biotinylated Fc-fused monkey CD137; experiment: ELISA, 1 mM ADP, 0.039 ug/mL
Experimental: as §1

[5] = target: T1, biotinylated Fc-fused monkey CD137; experiment: ELISA, 1 mM ADP, 0.156 ug/mL
Experimental: as §1

[6] = target: T1, biotinylated Fc-fused monkey CD137; experiment: ELISA, 1 mM ADP, 0.625 ug/mL
Experimental: as §1

T1 sequence (chain, as listed by the source limits assumed): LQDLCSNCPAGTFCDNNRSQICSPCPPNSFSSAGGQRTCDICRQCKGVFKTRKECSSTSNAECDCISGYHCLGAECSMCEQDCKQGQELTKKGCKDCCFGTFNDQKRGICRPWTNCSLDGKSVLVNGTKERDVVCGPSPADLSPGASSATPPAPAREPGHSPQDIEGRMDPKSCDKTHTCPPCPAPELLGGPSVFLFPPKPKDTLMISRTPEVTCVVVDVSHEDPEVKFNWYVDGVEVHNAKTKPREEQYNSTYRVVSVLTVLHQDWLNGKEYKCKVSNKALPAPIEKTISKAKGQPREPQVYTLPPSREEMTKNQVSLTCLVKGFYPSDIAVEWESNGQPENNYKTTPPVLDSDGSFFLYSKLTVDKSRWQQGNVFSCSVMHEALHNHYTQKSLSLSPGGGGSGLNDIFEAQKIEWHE

absorbance ratio [1]	absorbance ratio [2]	absorbance ratio [3]	absorbance ratio [4]	absorbance ratio [5]	absorbance ratio [6]	Binder
17.9	6.9	0.8	0.7	1	2.3	dBBAT053-P253 (antibody, human IgG1, lambda, V domains shown) VH: EVQLVESGGDLVKPGGGLRLSCAASGFTFSTFTMNWVRQAPGKGLEWVSSISSRSNYIYYADSVKGRFTISRDNAKNSLYLQMNSLRAEDTAVYYCARFGLKNEMNWVFDYWGQGTLVTVSS VL: QSALTQPPSASGSPGQTVTISCTGTSSDVGFYNYVSWYQQHPGKAPKLMIYEGSKKPSGVPDRFSGSKSGNTASLTVSGLQAEDEADYFCSVYSYIYYVLFGGGTKLTVLG
30.5	30.2	3.8	0.7	22	29.2	dBBAT007-P253 (antibody, human IgG1, lambda, V domains shown) VH: EVQLVESGGDLVKPGGGLRLSCAASGFTFSGYTMNWVRQAPGKGLEWVSSISSRSNYAHYADSVKGRFTISRDNAKNSLYLQMNSLRAEDTAVYYCARFGLKNFMNWVFDYWGQGTLVTVSS VL: QSALTQPPSASGSPGQTVTISCTGTSSDVGFYNYVSWYQQHPGKAPKLMIYGTSKRPSGVPDRFSGSKSGNTASLTVSGLQAEDEADYFCSSYAYDAQLVFGGGTKLTVLG
42.9	32.4	1.1	1.5	3.6	14.4	dBBAT015-P253 (antibody, human IgG1, lambda, V domains shown) VH: EVQLVESGGDLVKPGGGLRLSCAASGFTFSTYTMNWVRQAPGKGLEWVSSISSRSTYATYADSVKGRFTISRDNAKNSLYLQMNSLRAEDTAVYYCARYGLKNSLNWVFDYWGQGTLVTVSS VL: QSALTQPPSASGSPGQTVTISCTGTSTDVGFYNYVSWYQQHPGKAPKLMIYEVSKKPSGVPDRFSGSKSGNTASLTVSGLQAEDEADYFCSTYSYDESVAFGGGTKLTVLG
33.9	16.8	1	1.2	2.2	5.8	dBBAT134-P253 (antibody, human IgG1, lambda, V domains shown) VH: EVQLVESGGDLVKPGGGLRLSCAASGFTFSSYTMNWVRQAPGKGLEWVSSISSRSNYADYADSVKGRFTISRDNAKNSLYLQMNSLRAEDTAVYYCARYGAKNEMNWVFDYWGQGTLVTVSS VL: QSALTQPPSASGSPGQTVTISCTGTSTDVGFYNYVSWYQQHPGKAPKLMIYEVSKRPSGVPDRFSGSKSGNTASLTVSGLQAEDEADYFCSSYTYDQQLMFGGGTKLTVLG
